According to paper PMC2361330 (British Journal of Cancer, 2006):

Biological target: Vascular endothelial growth factor receptor 1 (human (endogenous in HT29), UniProt P17948 27-1338)
Assay: cell-based or functional assay

Chain of Vascular endothelial growth factor receptor 1 (P17948 27-1338): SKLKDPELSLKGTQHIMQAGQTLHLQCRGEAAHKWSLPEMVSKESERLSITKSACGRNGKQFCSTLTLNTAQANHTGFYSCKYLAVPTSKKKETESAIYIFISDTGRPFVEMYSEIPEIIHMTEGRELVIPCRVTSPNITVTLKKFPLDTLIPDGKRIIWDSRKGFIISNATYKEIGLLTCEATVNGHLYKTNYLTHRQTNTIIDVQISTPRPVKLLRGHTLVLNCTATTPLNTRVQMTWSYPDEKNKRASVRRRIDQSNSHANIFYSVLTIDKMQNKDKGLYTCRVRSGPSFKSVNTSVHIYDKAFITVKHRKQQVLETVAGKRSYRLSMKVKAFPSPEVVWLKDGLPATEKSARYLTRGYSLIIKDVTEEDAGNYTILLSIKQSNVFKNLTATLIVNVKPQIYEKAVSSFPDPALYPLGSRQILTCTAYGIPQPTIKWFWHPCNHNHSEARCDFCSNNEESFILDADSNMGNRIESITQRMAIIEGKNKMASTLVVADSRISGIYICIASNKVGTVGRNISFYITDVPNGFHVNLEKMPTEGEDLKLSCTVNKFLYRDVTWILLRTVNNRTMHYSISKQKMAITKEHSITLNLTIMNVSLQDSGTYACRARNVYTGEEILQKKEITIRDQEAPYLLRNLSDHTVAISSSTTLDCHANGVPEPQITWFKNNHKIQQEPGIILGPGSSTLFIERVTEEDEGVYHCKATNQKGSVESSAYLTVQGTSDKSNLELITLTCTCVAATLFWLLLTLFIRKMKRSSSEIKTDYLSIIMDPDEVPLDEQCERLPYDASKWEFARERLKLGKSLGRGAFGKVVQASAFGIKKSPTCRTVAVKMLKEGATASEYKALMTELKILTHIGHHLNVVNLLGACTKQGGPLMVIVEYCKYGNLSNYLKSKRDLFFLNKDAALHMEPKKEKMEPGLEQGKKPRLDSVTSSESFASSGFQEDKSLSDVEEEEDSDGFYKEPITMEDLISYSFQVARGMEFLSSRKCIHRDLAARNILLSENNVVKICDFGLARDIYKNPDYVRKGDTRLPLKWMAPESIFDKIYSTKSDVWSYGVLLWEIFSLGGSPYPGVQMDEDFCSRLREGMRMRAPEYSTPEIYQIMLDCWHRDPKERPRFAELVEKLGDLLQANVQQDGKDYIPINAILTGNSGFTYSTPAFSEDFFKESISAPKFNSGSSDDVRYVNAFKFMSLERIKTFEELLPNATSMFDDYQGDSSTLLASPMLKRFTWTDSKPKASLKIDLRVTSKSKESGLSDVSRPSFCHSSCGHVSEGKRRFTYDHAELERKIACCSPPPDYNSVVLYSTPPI

Yes kinase activity by immune complex kinase assay in HT29 cells treated with VEGF-A (10 ng ml^−1) for 0-15 min: ~2.5 fold
B1: Yes (enzyme)
chain: not shown
